Laboratory results: patent publication US20050037448A1

Assays:
human proinsulin (human) [1] = target: human proinsulin (human) (UniProt P01308); assay: competitive RIA, PEP001-coated tubes, 125I-Tyr-C-peptide; serum E1 overloaded with 3.33 pmol/ml proinsulin; no AC1D4
des-31,32-proinsulin [2] = target: des-31,32-proinsulin (UniProt P01308); assay: sandwich immunoenzymatic C-peptide assay: PEP001 beads, goat polyclonal anti-C-peptide-alkaline phosphatase; no BC9B6
des-64,65-proinsulin [3] = target: des-64,65-proinsulin (UniProt P01308); assay: as above
human proinsulin (human) [4] = target: human proinsulin (human) (UniProt P01308); assay: as above
des-31,32-proinsulin [5] = target: des-31,32-proinsulin (UniProt P01308); assay: competitive RIA, PEP001-coated tubes, 125I-Tyr-C-peptide; serum E1 overloaded with 3.33 pmol/ml des-31,32-proinsulin; no AC1D4
des-31,32-proinsulin [6] = target: des-31,32-proinsulin (UniProt P01308); assay: competitive RIA, PEP001-coated tubes, 125I-Tyr-C-peptide; serum E2 overloaded with 0.67 pmol/ml des-31,32-proinsulin; no AC1D4
des-64,65-proinsulin [7] = target: des-64,65-proinsulin (UniProt P01308); assay: competitive RIA, PEP001-coated tubes, 125I-Tyr-C-peptide; serum E1 overloaded with 0.16 pmol/ml des-64,65-proinsulin; no AC1D4
des-64,65-proinsulin [8] = target: des-64,65-proinsulin (UniProt P01308); assay: competitive RIA, PEP001-coated tubes, 125I-Tyr-C-peptide; serum E1 overloaded with 0.67 pmol/ml des-64,65-proinsulin; no AC1D4
des-64,65-proinsulin [9] = target: des-64,65-proinsulin (UniProt P01308); assay: competitive RIA, PEP001-coated tubes, 125I-Tyr-C-peptide; serum E2 overloaded with 0.16 pmol/ml des-64,65-proinsulin; no AC1D4
des-64,65-proinsulin [10] = target: des-64,65-proinsulin (UniProt P01308); assay: competitive RIA, PEP001-coated tubes, 125I-Tyr-C-peptide; serum E2 overloaded with 0.67 pmol/ml des-64,65-proinsulin; no AC1D4
human proinsulin (human) [11] = target: human proinsulin (human) (UniProt P01308); assay: competitive RIA, PEP001-coated tubes, 125I-Tyr-C-peptide; serum E1 overloaded with 0.16 pmol/ml proinsulin; competitor AC1D4 20 µg/ml
human proinsulin (human) [12] = target: human proinsulin (human) (UniProt P01308); assay: competitive RIA, PEP001-coated tubes, 125I-Tyr-C-peptide; serum E1 overloaded with 0.67 pmol/ml proinsulin; competitor AC1D4 20 µg/ml
human proinsulin (human) [13] = target: human proinsulin (human) (UniProt P01308); assay: competitive RIA, PEP001-coated tubes, 125I-Tyr-C-peptide; serum E2 overloaded with 3.33 pmol/ml proinsulin; competitor AC1D4 20 µg/ml
des-31,32-proinsulin [14] = target: des-31,32-proinsulin (UniProt P01308); assay: competitive RIA, PEP001-coated tubes, 125I-Tyr-C-peptide; serum E1 overloaded with 3.33 pmol/ml des-31,32-proinsulin; competitor AC1D4 20 µg/ml
des-31,32-proinsulin [15] = target: des-31,32-proinsulin (UniProt P01308); assay: competitive RIA, PEP001-coated tubes, 125I-Tyr-C-peptide; serum E2 overloaded with 3.33 pmol/ml des-31,32-proinsulin; competitor AC1D4 20 µg/ml
des-64,65-proinsulin [16] = target: des-64,65-proinsulin (UniProt P01308); assay: competitive RIA, PEP001-coated tubes, 125I-Tyr-C-peptide; serum E1 overloaded with 0.67 pmol/ml des-64,65-proinsulin; competitor AC1D4 20 µg/ml
des-64,65-proinsulin [17] = target: des-64,65-proinsulin (UniProt P01308); assay: competitive RIA, PEP001-coated tubes, 125I-Tyr-C-peptide; serum E1 overloaded with 3.33 pmol/ml des-64,65-proinsulin; competitor AC1D4 20 µg/ml
des-64,65-proinsulin [18] = target: des-64,65-proinsulin (UniProt P01308); assay: competitive RIA, PEP001-coated tubes, 125I-Tyr-C-peptide; serum E2 overloaded with 0.16 pmol/ml des-64,65-proinsulin; competitor AC1D4 20 µg/ml
des-64,65-proinsulin [19] = target: des-64,65-proinsulin (UniProt P01308); assay: competitive RIA, PEP001-coated tubes, 125I-Tyr-C-peptide; serum E2 overloaded with 0.67 pmol/ml des-64,65-proinsulin; competitor AC1D4 20 µg/ml
des-31,32-proinsulin [20] = target: des-31,32-proinsulin (UniProt P01308); assay: sandwich immunoenzymatic C-peptide assay: PEP001 beads, goat polyclonal conjugate; competitors AC1D4 + BC9B6 in equal quantities, column head 2 µg/ml
des-64,65-proinsulin [21] = target: des-64,65-proinsulin (UniProt P01308); assay: as above
human proinsulin (human) [22] = target: human proinsulin (human) (UniProt P01308); assay: as above
des-31,32-proinsulin [23] = target: des-31,32-proinsulin (UniProt P01308); assay: sandwich immunoenzymatic C-peptide assay: PEP001 beads, goat polyclonal conjugate; competitors AC1D4 + BC9B6 in equal quantities, 10 µg/ml
des-64,65-proinsulin [24] = target: des-64,65-proinsulin (UniProt P01308); assay: as above
human proinsulin (human) [25] = target: human proinsulin (human) (UniProt P01308); assay: as above
des-31,32-proinsulin [26] = target: des-31,32-proinsulin (UniProt P01308); assay: sandwich immunoenzymatic C-peptide assay: PEP001 beads, goat polyclonal conjugate; competitors AC1D4 + BC9B6 in equal quantities, 20 µg/ml
des-64,65-proinsulin [27] = target: des-64,65-proinsulin (UniProt P01308); assay: as above
human proinsulin (human) [28] = target: human proinsulin (human) (UniProt P01308); assay: as above

PEP001 anti-C-peptide monoclonal antibody
Increase after overload (%) (human proinsulin (human) [1]): 288%
percentage of cross reaction (des-31,32-proinsulin [2]): 108%
percentage of cross reaction (des-64,65-proinsulin [3]): 94%
percentage of cross reaction (human proinsulin (human) [4]): 92%
Increase after overload (%) (des-31,32-proinsulin [5]): 213%
Increase after overload (%) (des-31,32-proinsulin [6]): 8%
Increase after overload (%) (des-64,65-proinsulin [7]): 6%
Increase after overload (%) (des-64,65-proinsulin [8]): 49%
Increase after overload (%) (des-64,65-proinsulin [9]): 0%
Increase after overload (%) (des-64,65-proinsulin [10]): 9%
Increase after overload (%) (human proinsulin (human) [11]): 0%
Increase after overload (%) (human proinsulin (human) [12]): 6%
Increase after overload (%) (human proinsulin (human) [13]): 0%
Increase after overload (%) (des-31,32-proinsulin [14]): 21%
Increase after overload (%) (des-31,32-proinsulin [15]): 6%
Increase after overload (%) (des-64,65-proinsulin [16]): 63%
Increase after overload (%) (des-64,65-proinsulin [17]): 242%
Increase after overload (%) (des-64,65-proinsulin [18]): 0%
Increase after overload (%) (des-64,65-proinsulin [19]): 18%
percentage of cross reaction (des-31,32-proinsulin [20]): 65%
percentage of cross reaction (des-64,65-proinsulin [21]): 48%
percentage of cross reaction (human proinsulin (human) [22]): 23%
percentage of cross reaction (des-31,32-proinsulin [23]): 30%
percentage of cross reaction (des-64,65-proinsulin [24]): 18%
percentage of cross reaction (human proinsulin (human) [25]): 4%
percentage of cross reaction (des-31,32-proinsulin [26]): 19%
percentage of cross reaction (des-64,65-proinsulin [27]): 10%
percentage of cross reaction (human proinsulin (human) [28]): 2%
